Where “and” joins values, the source holds several entries; their conditions need not be identical. Identical values can stand only once.

As usually defined, the EC50 is the concentration giving half of the maximal effect. The low end stands for a more potent agent, the high end for a less potent agent. In general, Kd refers to the free concentration of one partner at which half of the binding sites on the other are occupied at equilibrium, for simple one-to-one binding. Read a high Kd as lower affinity. As usually defined, the IC50 is the concentration that inhibits the measured activity by half.

Experiment [1] addresses T1, human CD4, membrane-bound on cells (HPB-ALL cells, blood/PBMC CD4+ T cells, assay target cells) (human, UniProt P01730 26-458).
T1 construct: whole, on cells; Target on human HPB-ALL T-leukemic cells, human blood CD4+ T lymphocytes and CD4+ indicator cells of the neutralisation assays; also called CD4 receptor; surface CD4
Kind of experiment: FACS direct binding to HPB-ALL cells, on ice 1 h, goat F(ab)2 anti-huIgG Fc-FITC; EC50 by MFI, exp. 2.
Experimental: (§1) On V-bottomed microplates, aliquots of 2×10⁵ cells in 0.1 mL per well were added, centrifuged, and liquid discarded. […] This step was repeated one more time. The cells from the three incubations (passages) were investigated. […] The cells were washed once and the liquid discarded after centrifugation. To each well, aliquots of 200 μL of binding buffer were added and transferred to microdilution tubes for flow cytometric analysis. The binding intensity (mean fluorescence intensity, MFI), based on an inlet of 5,000 cells per sample, was read on FACS.
(§2) The absolute MFI values were also normalized to % MFI for purpose of between-passage comparison.

Experiment [2] has as its target T1, human CD4, membrane-bound on cells …. Kind of experiment: FACS direct binding to HPB-ALL cells, on ice 1 h, goat F(ab)2 anti-huIgG Fc-FITC; EC50 by % MFI, exp. 3.
Experimental: as §1, §2
For experiment [3] the target is unchanged. Kind of experiment: saturation binding to HPB-ALL cells on ice 1 h; free antibody by ELISA, bound by subtraction, curve fit; mean of 3. (ELISA stands for enzyme-linked immunosorbent assay.)
Experimental: The resultant saturating free-vs.-bound concentration profiles were analyzed on SigmaPlot by curve-fitting based on the equation, [B]=Bmax·{[F]/([F]+Kd)}, where the respective [B] and [F] stand for the bound and free concentrations.
The binding study was conducted at cold and/or under 0.05% azide to avoid a potential endocytosis of the ligand-receptor complexes. Incubation at room temperature or 37° C. could allow a reaction plateau to be reached sooner. […] The supernatants were collected for determination by ELISA of the free drug concentrations, and the bound fractions were obtained by subtraction from the total.
A further experiment concerns the target T2, recombinant soluble CD4 (UniProt P01730 26-390, limits assumed).
T2 construct: also called sCD4; rsCD4
As to the kind of experiment: competition ELISA on coated sCD4/p2704a mixture; inhibition of B4-biotin (10 µg/mL).

The target in experiment [4] is T1, human CD4, membrane-bound on cells …. Kind of experiment: FACS, fresh blood CD4+ T cells of subject M3; free CD4 sites left by dB4 detected by dB4C7-Alexa (250 ng/mL). (In general: A flow cytometer gives signals particle by particle.)
Experiment [5] has the same target. As to the kind of experiment: FACS, fresh blood CD4+ T cells of subject M2; free CD4 sites left by dB4 detected by dB4C7-Alexa (250 ng/mL).
Experiment [6] has the same target. As to the kind of experiment: FACS direct binding to HPB-ALL cells, on ice 1 h, goat F(ab)2 anti-huIgG Fc-FITC; EC50 by % MFI, exp. 1.
Experimental: as §1, §2
For experiment [7] the target is unchanged. As to the kind of experiment: FACS, fresh blood CD4+ T cells of subject M1; bound dB4 detected by goat anti-hIgG-FITC.
Text: (§3) The samples were calibrated with reference beads for fluorescence reading.
Experiment [8] has the same target. Kind of experiment: FACS, fresh blood CD4+ T cells of subject M1; free CD4 sites left by dB4 detected by dB4C7-Alexa (250 ng/mL).
Experiment [9] shares this target. Kind of experiment: competition FACS on HPB-ALL cells; inhibition of dB4-Alexa (250 ng/mL).
Experimental: On V-bottomed microplates, aliquots of 2×10⁵ cells in 0.1 mL per well were added, centrifuged, and liquid discarded. […] The cells were washed once and the liquid discarded after centrifugation. To each well, aliquots of 200 μL of binding buffer were added and transferred to microdilution tubes for flow cytometric analysis. The binding intensity (mean fluorescence intensity, MFI), based on an inlet of 5,000 cells per sample, was read on FACS.
For experiment [10] the target is unchanged. As to the kind of experiment: FACS, fresh blood CD4+ T cells of subject F2; bound dB4 detected by goat anti-hIgG-FITC.
Text: as §3
For experiment [11] the target is unchanged. Kind of experiment: FACS, fresh blood CD4+ T cells of subject M2; bound dB4 detected by goat anti-hIgG-FITC.
Text: as §3
The target in experiment [12] is T3, baboon CD4 on CD4 positive T cells (baboon (Papio species), UniProt A0A096MWA4 26-457).
T3 construct: also called baboon CD4+ T cells
T3 sequence (A0A096MWA4 entry or part of it limits assumed, form in doubt): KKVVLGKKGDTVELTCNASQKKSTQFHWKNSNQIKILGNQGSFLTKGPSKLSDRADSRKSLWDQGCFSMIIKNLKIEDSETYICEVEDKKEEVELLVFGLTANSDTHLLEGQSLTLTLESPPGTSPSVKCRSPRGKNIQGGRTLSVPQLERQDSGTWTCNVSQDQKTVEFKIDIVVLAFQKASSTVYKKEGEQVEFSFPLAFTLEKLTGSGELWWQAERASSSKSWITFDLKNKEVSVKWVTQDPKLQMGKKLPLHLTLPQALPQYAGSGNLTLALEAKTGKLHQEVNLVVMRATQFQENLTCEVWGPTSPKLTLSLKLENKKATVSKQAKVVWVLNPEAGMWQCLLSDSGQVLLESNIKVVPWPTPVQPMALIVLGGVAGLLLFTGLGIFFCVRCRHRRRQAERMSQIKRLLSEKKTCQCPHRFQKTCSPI
Kind of experiment: binding to baboon CD4 positive T cells (FIG. 21).

Experiment [13] has as its target T1, human CD4, membrane-bound on cells …. Kind of experiment: FACS, fresh blood CD4+ T cells, mean of six subjects; bound dB4 detected by goat anti-hIgG-FITC.
Text: as §3
The target is the same in experiment [14]. Kind of experiment: FACS, fresh blood CD4+ T cells of subject M3; bound dB4 detected by goat anti-hIgG-FITC.
Text: as §3

B1: mAb dB4C7 (human deimmunized, Fc-aglycosylated IgG1 derived from murine mAb B4, expressed by clone 7) (antibody, V domains shown)
VH: QVQLVQSGPELKKPGASVKVSCKASGYTFTDYVIHWVKQATGQGLEWIGEIYPGSGSAYSNAKFKDRVTMTADKSSNTAYMELSSLTSDDTAVYFCARRGNGTGFAYWGQGTLVTVSS
VL: DIVLTQSPASLAVSLGQRATITCKAGQSVDYDGDSYMNWYQQKPGQPPKLLIYVASNLESGIPARFSGSGSGTDFTLNIHPVEENDAATYYCQQSYKDPLTFGQGTKLEIKR
modifications: N-glycosylated at Asn101 in the Fv; Fc N-glycosylation site removed (N298H)
notes: treated as one molecule; also called deimmunized B4
Turning to B1, the EC50 was 43.7 ng/mL in [1]; 40.7 ng/mL in experiment [2]; 3.3 ng/mL in [4]; 4.6 ng/mL in experiment [5]; 42.4 ng/mL in experiment [6]; 3.7 ng/mL in [7]. Besides, the EC50 is 4.8 ng/mL in experiment [8]; 5.7 ng/mL in experiment [10]; 4.2 ng/mL in [11]; 290 ng/mL in [12]; 4.1 ng/mL in [13]; 2.6 ng/mL in [14]. For the same molecule, in experiment [3], the Kd is 0.0085 µg/mL and 0.056 nM. The IC50 was 8190 ng/mL in the experiment with recombinant soluble CD4; 0.197 µg/mL and 1.8 nM in experiment [9].

The values above are taken from patent publication US20170369576A1 (UBI US, published 2017).
